Results published in the supplement of paper PMC12764529.
± gives the half width of the 95% confidence interval.

Tests used:
[1] = folding stability dG unfold from trypsin proteolysis; higher = more stable
Summary of the method: (§1)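 Designed mini-proteins (under 80 residues, no cysteine) in a PA-tagged cDNA display construct were digested with trypsin and chymotrypsin. Each protease was used at 11 concentrations (threefold dilutions) plus a no-protease condition, followed by sequencing. K50 was inferred by Bayesian fitting of sequencing counts, and unfolding free energy was derived against a sequence-predicted unfolded-state K50 and a shared folded-state K50, per protease or combined. Only designs with AlphaFold2 dimer inter-PAE above 15 were kept.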

[2] = folding stability dG unfold from chymotrypsin proteolysis; higher = more stable
Summary of the method: as §1

[3] = folding stability dG unfold (combined trypsin and chymotrypsin); higher = more stable
Summary of the method: as §1

Sequence | folding stability dG unfold [1] | folding stability dG unfold [2] | folding stability dG unfold [3]
SAGGSSLTTPDGVKVEVYENPENNTIYVFEKKPDGTYTLKTLTKEGDKVTEVSTKTIKSNEKEKLLSAGGSA [r2_336_JUSTAS] | 0.966 ± 0.029 kcal/mol | 1.81 ± 0.081 kcal/mol | 1.52 ± 0.069 kcal/mol
SAMKTVTIKVTVEVTKNENGEEVKTVTVTLTLPEEEMTEEQLKELAKELADKLAEENNLTVKITKIEVTSAG [r14_190_TrROS_Hall] | 3.27 ± 0.19 kcal/mol | 2.93 ± 0.1 kcal/mol | 3.08 ± 0.06 kcal/mol
SAGAVELPPGVAAVERDPETGVVTATYPDGTVTRYTVSTEWDPTVGRTRPRVTVEVWSPDSRISTRDLPSAG [r5_109_JUSTAS] | 0.119 ± 0.31 kcal/mol | 0.799 ± 0.13 kcal/mol | 0.527 ± 0.12 kcal/mol
SAGGSAGGMTLTVDLPLPDGGTVRLEVEPLPDGTVRVRLTYPDGRKAEFETSAPVEVLLERAAGSAGGSAGG [r6_808_TrMRF] | 1.61 ± 0.026 kcal/mol | 3.05 ± 0.054 kcal/mol | 2.69 ± 0.086 kcal/mol
SASKKPKLIIVDIVIKPEELKKMKPEELIEKILKELGIPKEKDVKIDLFLEPVELDGEEYYIIPALITNSAG [r14_334_TrMRF] | 1.11 ± 0.13 kcal/mol | 1.08 ± 0.14 kcal/mol | 1.24 ± 0.28 kcal/mol
SMYKLSVYRNGQPVPEEEALERVKRIEEELGREVDPEELARLLAAEPDTVVTVTKYAEPGKPIGTLTYTRSA [r9_1045_JUSTAS] | 1.32 ± 0.08 kcal/mol | 1.4 ± 0.17 kcal/mol | 1.39 ± 0.16 kcal/mol
SAGGSAGGSMTIVIPKKTLEKMKPETIKKLLELAKELNTTITMNENAITIPVGKGTEEALKALSAGGSAGGS [r12_945_TrMRF] | 1.5 ± 0.07 kcal/mol | 1.05 ± 0.025 kcal/mol | 1.28 ± 0.073 kcal/mol
SAGGSAGGSAGGGSPIPTTTLTTVTYGSSSSLLSSAKGPSSVPYSLPSSLGSSVSTTVVGSAGGSAGGSAGG [r7_141_JUSTAS] | -0.911 ± 0.3 kcal/mol | -0.13 ± 0.29 kcal/mol | -0.34 ± 0.38 kcal/mol
SAGGEVIELKIKFKTPEQREKLKEIAKKLNAEVVEEKDGEVIIRFKTPEQAERALKEAEKLGAEVELSAGGS [r16_88_TrROS_Hall] | 4.29 ± 0.26 kcal/mol | 4.47 ± 0.097 kcal/mol | 4.48 ± 0.17 kcal/mol
SAGGSAGGSASPVPVVEVEITPVKLPGDETAAKITVLLEGDGEPVVVWFDSKDVEKVIEEVLASAGGSAGGS [r20_238_JUSTAS] | 0.293 ± 0.12 kcal/mol | 0.847 ± 0.025 kcal/mol | 0.774 ± 0.11 kcal/mol
WLKFPFPIYNPGFGRPAKFEIELWPDGQLQVTWNGQPILSIPIRIVPPPEVEVDPEYDPNGKEKPKWKYPGS [r1_496_TrROS] | 0.438 ± 0.22 kcal/mol | 1.81 ± 0.16 kcal/mol | 1.39 ± 0.35 kcal/mol
SAGGKLLEELNVEKVEVVEVKEFSLPPLPLLVLLPTVTVTFKDGSKVKFKVLFLYDPSNPKPIVVAGSAGGS [r8_422_TrMRF] | 2.42 ± 0.1 kcal/mol | 3.64 ± 0.048 kcal/mol | 3.07 ± 0.16 kcal/mol
SAGGSAGGSAGKDIAKNIPPGAKILPIEPQPRGGGLYVKIEIEMPDPNGKKEKVTFTFPISAGGSAGGSAGG [r17_140_TrROS] | -0.467 ± 0.14 kcal/mol | 0.589 ± 0.26 kcal/mol | 0.366 ± 0.26 kcal/mol
SAGGSAGGSPGFIIRVRTWERDPKDGKWKPKRERPLTFPPDDADDFADKLNSESPNVEVEIMPSAGGSAGGS [r12_342_TrROS] | -0.0285 ± 0.15 kcal/mol | -0.259 ± 0.25 kcal/mol | -0.0797 ± 0.15 kcal/mol
SAGGSAGGKEVKIEIYDSDDGILLVEVPDLDDAVEAVEKLGVELELVPYDPEKGRLLLRLRIPGSAGGSAGG [r6_510_TrMRF] | 0.26 ± 0.21 kcal/mol | 0.8 ± 0.2 kcal/mol | 0.64 ± 0.16 kcal/mol
SAGGSAGGSAGIKIEWEQMPGGYMQYKVTIPDPNGKPLKIDVHYKSPEDAEEKAKELLKSSAGGSAGGSAGG [r11_819_TrROS] | 0.215 ± 0.089 kcal/mol | 0.386 ± 0.26 kcal/mol | 0.333 ± 0.2 kcal/mol
SAGGSAGGMVIVFDKKNKTIYIYDKKTGKKIEIKVKSIEEAKEAIKKLFPNKKVEIVEVKIFKPSAGGSAGG [r6_286_TrROS_Hall] | 1.43 ± 0.065 kcal/mol | 1.9 ± 0.09 kcal/mol | 1.76 ± 0.2 kcal/mol
MPAISIEEIIKLAKEAGKPAPPTVIVFNYKFGNTTRTLPVPLSEPVSLAEVEAAIKAADPNVTEITLTFVPS [r1_135_JUSTAS] | 0.551 ± 0.088 kcal/mol | 1.36 ± 0.12 kcal/mol | 1.07 ± 0.16 kcal/mol
SAGGSAGGSETVVIKIEVSPEELEKLKEALEEAGYEVEIRVERDENGKLTVTVTIRLPPGVKPSAGGSAGGS [r12_653_TrROS_Hall] | 3.18 ± 0.17 kcal/mol | 2.57 ± 0.069 kcal/mol | 2.86 ± 0.086 kcal/mol
SAGGSAGGSGYLSQERPVTIKLPNGEVVEVDGVVRESPESDVVTVEIPETGQTIEVPKANVVESAGGSAGGS [r12_772_JUSTAS] | 0.909 ± 0.06 kcal/mol | -0.035 ± 0.16 kcal/mol | 0.447 ± 0.1 kcal/mol
SAGGEIKIKKSKDGKTLYIEIKIKAGEKVKLKLTITLPNGKKAEITSVEIIEKNGELYIKVEIKIKDSAGGS [r16_499_TrROS_Hall] | 3.92 ± 0.28 kcal/mol | 4.67 ± 0.4 kcal/mol | 4.42 ± 0.42 kcal/mol
